Data: PMC9896810, “Crk proteins activate the Rap1 guanine nucleotide exchange factor C3G by segregated adaptor-dependent and -independent mechanisms” (Cell Communication and Signaling : CCS, 2023)

T1: C3G-PAAA (human, UniProt Q13905-1 4-1077, P453A | P454A | L456A | P457A | K459A | P540A | P541A | L543A | P544A | K546A | …)
T1 construct: human C3G isoform a, residues 4-1077; only P1 kept, P2, P3 and P4 mutated to Ala; source: E. coli BL21 (DE3), purified (IMAC, TEV digestion, reversed IMAC, SEC); not shown: His, N-terminal, cleaved; Halo, N-terminal, cleaved
T1 sequence (looked up): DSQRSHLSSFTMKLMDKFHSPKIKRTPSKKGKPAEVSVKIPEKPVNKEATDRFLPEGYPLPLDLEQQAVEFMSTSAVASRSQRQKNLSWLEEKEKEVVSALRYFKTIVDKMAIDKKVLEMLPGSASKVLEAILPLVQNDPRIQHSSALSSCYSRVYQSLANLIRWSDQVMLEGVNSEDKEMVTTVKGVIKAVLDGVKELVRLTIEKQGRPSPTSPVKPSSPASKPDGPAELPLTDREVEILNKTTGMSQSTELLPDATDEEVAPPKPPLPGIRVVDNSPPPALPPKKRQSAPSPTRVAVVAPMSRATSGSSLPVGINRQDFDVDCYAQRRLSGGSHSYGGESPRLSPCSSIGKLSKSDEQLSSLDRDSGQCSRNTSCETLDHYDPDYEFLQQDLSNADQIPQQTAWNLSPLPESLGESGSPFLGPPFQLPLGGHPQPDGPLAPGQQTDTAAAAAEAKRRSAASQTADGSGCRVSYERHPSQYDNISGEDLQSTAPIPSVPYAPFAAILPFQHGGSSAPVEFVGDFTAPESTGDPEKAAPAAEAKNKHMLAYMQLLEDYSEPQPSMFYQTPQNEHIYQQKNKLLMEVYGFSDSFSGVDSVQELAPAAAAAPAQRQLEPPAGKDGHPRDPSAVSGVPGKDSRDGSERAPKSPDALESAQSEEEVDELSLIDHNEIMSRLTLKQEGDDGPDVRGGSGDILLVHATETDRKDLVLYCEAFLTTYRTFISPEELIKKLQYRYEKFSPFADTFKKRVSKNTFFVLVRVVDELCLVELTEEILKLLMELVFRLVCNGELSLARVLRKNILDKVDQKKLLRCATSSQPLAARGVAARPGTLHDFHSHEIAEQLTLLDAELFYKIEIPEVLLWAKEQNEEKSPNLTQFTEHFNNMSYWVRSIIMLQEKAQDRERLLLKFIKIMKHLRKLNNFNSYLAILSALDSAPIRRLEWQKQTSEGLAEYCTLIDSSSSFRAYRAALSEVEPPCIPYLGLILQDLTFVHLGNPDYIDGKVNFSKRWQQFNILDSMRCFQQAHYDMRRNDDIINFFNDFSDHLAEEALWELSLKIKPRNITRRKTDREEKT

T2: C3G-AAAP-Y554H (human, UniProt Q13905-1 4-1077, P283A | P284A | L286 | P287 | P289A | P453A | P454A | L456A | P457A | K459A | …)
T2 construct: human C3G isoform a, residues 4-1077; source: E. coli BL21 (DE3), purified (IMAC, TEV digestion, reversed IMAC, SEC); not shown: His, N-terminal, cleaved; Halo, N-terminal, cleaved
T2 sequence (looked up): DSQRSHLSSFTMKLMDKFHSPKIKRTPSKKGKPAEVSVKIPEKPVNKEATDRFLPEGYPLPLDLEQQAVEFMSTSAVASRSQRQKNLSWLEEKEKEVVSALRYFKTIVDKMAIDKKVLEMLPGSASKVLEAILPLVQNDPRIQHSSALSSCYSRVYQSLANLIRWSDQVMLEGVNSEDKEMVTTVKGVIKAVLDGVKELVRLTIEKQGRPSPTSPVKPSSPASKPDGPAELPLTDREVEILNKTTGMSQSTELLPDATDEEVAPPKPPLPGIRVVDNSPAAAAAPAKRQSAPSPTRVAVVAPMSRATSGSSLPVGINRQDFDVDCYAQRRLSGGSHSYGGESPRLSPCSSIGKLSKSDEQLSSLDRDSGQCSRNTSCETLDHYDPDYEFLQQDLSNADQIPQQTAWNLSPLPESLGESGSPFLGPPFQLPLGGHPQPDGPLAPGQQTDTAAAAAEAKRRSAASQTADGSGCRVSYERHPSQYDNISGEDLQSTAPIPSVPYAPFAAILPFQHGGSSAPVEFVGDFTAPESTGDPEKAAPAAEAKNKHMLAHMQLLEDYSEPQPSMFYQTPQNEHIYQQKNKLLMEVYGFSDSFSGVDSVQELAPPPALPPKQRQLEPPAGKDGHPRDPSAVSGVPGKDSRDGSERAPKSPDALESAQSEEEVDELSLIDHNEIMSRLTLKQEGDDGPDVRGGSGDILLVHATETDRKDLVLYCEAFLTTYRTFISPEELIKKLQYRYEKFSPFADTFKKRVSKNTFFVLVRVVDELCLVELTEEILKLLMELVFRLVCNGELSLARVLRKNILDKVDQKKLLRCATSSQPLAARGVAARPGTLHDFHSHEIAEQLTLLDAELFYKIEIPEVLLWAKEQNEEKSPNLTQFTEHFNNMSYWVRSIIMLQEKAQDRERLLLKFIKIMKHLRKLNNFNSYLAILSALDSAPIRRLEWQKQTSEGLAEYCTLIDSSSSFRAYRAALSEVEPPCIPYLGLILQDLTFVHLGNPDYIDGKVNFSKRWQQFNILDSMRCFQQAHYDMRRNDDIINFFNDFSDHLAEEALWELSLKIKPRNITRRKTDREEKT

B1: CrkL (full-length) (natural protein, human, UniProt P46109 1-303, looked up)
chain: MSSARFDSSDRSAWYMGPVSRQEAQTRLQGQRHGMFLVRDSSTCPGDYVLSVSENSRVSHYIINSLPNRRFKIGDQEFDHLPALLEFYKIHYLDTTTLIEPAPRYPSPPMGSVSAPNLPTAEDNLEYVRTLYDFPGNDAEDLPFKKGEILVIIEKPEEQWWSARNKDGRVGMIPVPYVEKLVRSSPHGKHGNRNSNSYGIPEPAHAYAQPQTTTPLPAVSGSPGAAITPLPSTQNGPVFAKAIQKRVPCAYDKTALALEVGDIVKVTRMNINGQWEGEVNGRKGLFPFTHVKIFDPQNPDENE
notes: human CrkL, residues 1-303, in pETEV15b; also called Crk-like protein; source: E. coli BL21 (DE3), purified (IMAC, TEV digestion, SEC); not shown: His, N-terminal, cleaved
B2: CrkL-SH3N (domain or fragment, human, UniProt P46109 125-182, looked up)
chain: LEYVRTLYDFPGNDAEDLPFKKGEILVIIEKPEEQWWSARNKDGRVGMIPVPYVEKLV
notes: human CrkL, SH3N domain, residues 125-182, in pETEV15b; source: E. coli BL21 (DE3), purified (IMAC, TEV digestion, SEC); not shown: His, N-terminal, cleaved

Key:
C3G-PAAA = biological target: T1, C3G-PAAA; test: ITC; single-PRM mutant of C3G in the cell titrated with CrkL or CrkL-SH3N, 25 °C, 300 mM NaCl, pH 7.5; SEDPHAT, 1:1 heteroassociation model; N is the competent fraction of C3G; conditions: both partners purified
C3G-AAAP-Y554H = biological target: T2, C3G-AAAP-Y554H; test: as above; conditions: both partners purified

Binder	Kd (C3G-PAAA) [nM]	stoichiometry N (C3G-PAAA)	Kd (C3G-AAAP-Y554H) [nM]	stoichiometry N (C3G-AAAP-Y554H)
B1	900	0.86	–	–
B2	–	–	2400	0.57
